Drawing on paper PMC8238508, “Protein-based condensation mechanisms drive the assembly of RNA-rich P granules”, this text covers Kd for one molecule.

The target of one data set is T1, MEG-3 IDR (Caenorhabditis elegans, UniProt Q9TXM1 1-544).
T1 sequence: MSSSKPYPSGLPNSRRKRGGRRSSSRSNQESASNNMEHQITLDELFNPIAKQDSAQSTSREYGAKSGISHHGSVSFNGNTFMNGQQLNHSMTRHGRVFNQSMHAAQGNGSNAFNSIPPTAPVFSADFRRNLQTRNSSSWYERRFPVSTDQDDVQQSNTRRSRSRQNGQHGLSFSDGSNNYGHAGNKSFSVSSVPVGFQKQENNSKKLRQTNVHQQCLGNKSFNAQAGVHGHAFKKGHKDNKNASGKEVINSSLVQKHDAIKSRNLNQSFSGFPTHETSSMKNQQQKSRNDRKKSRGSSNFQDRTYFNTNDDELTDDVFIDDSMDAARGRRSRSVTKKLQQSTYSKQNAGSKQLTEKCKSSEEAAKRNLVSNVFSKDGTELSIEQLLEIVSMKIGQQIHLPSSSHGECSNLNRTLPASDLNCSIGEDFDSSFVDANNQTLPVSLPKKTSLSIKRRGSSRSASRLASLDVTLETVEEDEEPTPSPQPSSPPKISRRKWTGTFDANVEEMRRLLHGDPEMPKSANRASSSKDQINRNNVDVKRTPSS
Put plainly: filter binding; mean and SD computed from four replicate fits: 109.3, 83.64, 103.3, 107.9; Hill model; curve assigned by legend order; 50 nM RNA; 3.75 mM HEPES (stock pH 7.4), 150 mM NaCl, 0.9 mM beta-mercaptoethanol, 1.5% glycerol, 10 mM Tris HCl; 30 min, room temperature; nitrocellulose/Hybond-N+ dot blot. As to conditions: protein: recombinant; tags: N-terminal 6xHis (pET28a); label: 3' fluorescein.

The next data set concerns the target T2, MEG-3 (wild type) (Caenorhabditis elegans, UniProt Q9TXM1 1-862).
T2 sequence: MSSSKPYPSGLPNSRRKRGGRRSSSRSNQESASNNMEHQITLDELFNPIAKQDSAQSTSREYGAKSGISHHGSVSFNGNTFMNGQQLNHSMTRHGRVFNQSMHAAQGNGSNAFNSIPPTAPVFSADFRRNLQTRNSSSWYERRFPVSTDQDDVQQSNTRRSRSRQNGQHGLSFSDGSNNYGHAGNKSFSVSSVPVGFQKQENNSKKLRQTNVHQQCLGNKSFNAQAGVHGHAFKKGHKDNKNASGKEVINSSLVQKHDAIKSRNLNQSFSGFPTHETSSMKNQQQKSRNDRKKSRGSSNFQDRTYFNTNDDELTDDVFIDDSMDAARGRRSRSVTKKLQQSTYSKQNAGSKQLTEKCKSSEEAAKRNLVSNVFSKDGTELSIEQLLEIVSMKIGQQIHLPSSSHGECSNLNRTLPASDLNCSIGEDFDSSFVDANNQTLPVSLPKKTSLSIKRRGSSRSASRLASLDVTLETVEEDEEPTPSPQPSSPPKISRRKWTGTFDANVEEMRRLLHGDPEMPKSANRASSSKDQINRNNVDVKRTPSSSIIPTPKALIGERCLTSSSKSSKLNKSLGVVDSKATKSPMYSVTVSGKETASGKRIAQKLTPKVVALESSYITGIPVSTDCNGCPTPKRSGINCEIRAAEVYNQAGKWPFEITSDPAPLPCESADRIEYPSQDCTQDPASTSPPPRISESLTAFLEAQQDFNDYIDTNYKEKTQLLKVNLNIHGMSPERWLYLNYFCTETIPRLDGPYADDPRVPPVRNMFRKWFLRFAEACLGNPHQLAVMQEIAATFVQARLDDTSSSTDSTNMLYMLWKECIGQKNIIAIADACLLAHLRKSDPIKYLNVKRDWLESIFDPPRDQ
Briefly: filter binding; mean and SD computed from four replicate fits: 809.8, 808.8, 661.5, 695.9; Hill model; 50 nM RNA; 3.75 mM HEPES (stock pH 7.4), 150 mM NaCl, 0.9 mM beta-mercaptoethanol, 1.5% glycerol, 10 mM Tris HCl; 30 min, room temperature; nitrocellulose/Hybond-N+ dot blot. The conditions noted are these: protein: recombinant; tags: N-terminal 6xHis (pET28a); label: 3' fluorescein.

One may read the Kd as the equilibrium constant for the complex coming apart. UUUUUUUUUUUUUUUUUUUUUUUUUUUUUU (ssRNA) [poly-U(30) (30U)]: the figures for the dissociation constant (Kd) with MEG-3 IDR and in the data set with MEG-3 (wild type) were 101 ± 12 nM and 744 ± 77 nM, respectively.
